Measured values published in patent publication US20190077849A1 (US Dept. of Health and Human Services, published 2019).
Values joined by “and” are separate entries in the source; they are usually repeats but may differ in a detail not shown here. Equal values may be shown once. Read-outs that look alike come from different tables or passages of the source.

Key:
[1] = target: HIV-1 Env of KER2008.12.SG3 pseudovirus (clade A) (HIV-1); assay: cell-based or functional assay
[2] = target: HIV-1 Env of PVO.04.SG3 pseudovirus (clade B) (HIV-1); assay: cell-based or functional assay
[3] = target: HIV-1 Env of TH966.8.SG3 pseudovirus (clade AE) (HIV-1); assay: cell-based or functional assay
[4] = target: HIV-1 Env of CNE31.SG3 pseudovirus (clade C) (HIV-1); assay: cell-based or functional assay
[5] = target: HIV-1 Env of ZM106.9.SG3 pseudovirus (clade C) (HIV-1); assay: cell-based or functional assay
[6] = target: HIV-1 Env of KER2008.12.SG3 pseudovirus (clade A) (HIV-1); assay: cell-based or functional assay; remark: listed apart in the source
[7] = target: HIV-1 Env of PVO.04.SG3 pseudovirus (clade B) (HIV-1); assay: cell-based or functional assay; remark: listed apart in the source
[8] = target: T1, HIV-1 Env of YU2.DG.SG3 pseudovirus (clade B) (HIV-1, UniProt P35961 32-843); assay: cell-based or functional assay
[9] = target: HIV-1 Env of TH966.8.SG3 pseudovirus (clade AE) (HIV-1); assay: cell-based or functional assay; remark: listed apart in the source
[10] = target: T2, HIV-1 Env of 6095.V1.C10.SG3 pseudovirus (clade ACD) (HIV-1); assay: cell-based or functional assay
[11] = target: HIV-1 Env of CNE31.SG3 pseudovirus (clade C) (HIV-1); assay: cell-based or functional assay; remark: listed apart in the source
[12] = target: HIV-1 Env of 6101.10.SG3 pseudovirus (clade B) (HIV-1); assay: cell-based or functional assay
[13] = target: HIV-1 Env of ZM215.8.SG3 pseudovirus (clade C) (HIV-1); assay: cell-based or functional assay
[14] = target: HIV-1 Env of ZM106.9.SG3 pseudovirus (clade C) (HIV-1); assay: cell-based or functional assay; remark: listed apart in the source
[15] = target: HIV-1 Env of KER2008.12.SG3 pseudovirus (clade A) (HIV-1); assay: cell-based or functional assay; remark: listed apart in the source
[16] = target: HIV-1 Env of PVO.04.SG3 pseudovirus (clade B) (HIV-1); assay: cell-based or functional assay; remark: listed apart in the source
[17] = target: T1, HIV-1 Env of YU2.DG.SG3 pseudovirus …; assay: cell-based or functional assay; remark: listed apart in the source
[18] = target: HIV-1 Env of TH966.8.SG3 pseudovirus (clade AE) (HIV-1); assay: cell-based or functional assay; remark: listed apart in the source
[19] = target: T2, HIV-1 Env of 6095.V1.C10.SG3 …; assay: cell-based or functional assay; remark: listed apart in the source
[20] = target: HIV-1 Env of CNE31.SG3 pseudovirus (clade C) (HIV-1); assay: cell-based or functional assay; remark: listed apart in the source
[21] = target: HIV-1 Env of 6101.10.SG3 pseudovirus (clade B) (HIV-1); assay: cell-based or functional assay; remark: listed apart in the source
[22] = target: HIV-1 Env of ZM215.8.SG3 pseudovirus (clade C) (HIV-1); assay: cell-based or functional assay; remark: listed apart in the source
[23] = target: HIV-1 Env of ZM106.9.SG3 pseudovirus (clade C) (HIV-1); assay: cell-based or functional assay; remark: listed apart in the source
MPER peptide = target: T3, MPER peptide (HIV-1); assay: MPER peptide binding assay (method not given)
T3 construct: also called gp41 MPER peptide

B1: 10E8 variant 4 (H6-511-4mut VH + rL3-6mut VL) (antibody, V domains shown)
VH: EVRLVESGGGLVKPGGSLRLSCSASGFDFDNAWMTWVRQPPGKGLEWVGRITGPGEGWSVDYAESVKGRFTISRDNTKNTLYLEMNNVRTEDTGYYFCARTGKYYDFWSGYPPGEEYFQDWGQGTLVIVSS
VL: ASELTQDPAVSVALKQTVTITCRGDSLRSHYASWYQKKPGQAPVLLFYGKNNRPSGIPDRFSGSASGNRASLTITGAQAEDEADYYCSSRDKSGSRLSVFGGGTKLTVL
[1]
  IC50, pseudovirus neutralization: > 50 µg/mL
[2]
  IC50, pseudovirus neutralization: 2.39 µg/mL and 1.13 µg/mL
[3]
  IC50, pseudovirus neutralization: 0.036 µg/mL and 0.021 µg/mL
[4]
  IC50, pseudovirus neutralization: 1.16 µg/mL
[5]
  IC50, pseudovirus neutralization: > 50 µg/mL
[6]
  IC50, pseudovirus neutralization: > 50 µg/mL
  IC80, pseudovirus neutralization: > 50 µg/mL
[7]
  IC50, pseudovirus neutralization: 3.07 µg/mL
  IC80, pseudovirus neutralization: 11.9 µg/mL
[8]
  IC50, pseudovirus neutralization: 1.49 µg/mL
  IC80, pseudovirus neutralization: 6.33 µg/mL
[9]
  IC50, pseudovirus neutralization: 0.056 µg/mL
  IC80, pseudovirus neutralization: 0.291 µg/mL
[10]
  IC50, pseudovirus neutralization: 0.004 µg/mL
  IC80, pseudovirus neutralization: 0.015 µg/mL
[11]
  IC50, pseudovirus neutralization: 1.32 µg/mL
  IC80, pseudovirus neutralization: 4.04 µg/mL
[12]
  IC50, pseudovirus neutralization: 0.052 µg/mL
  IC80, pseudovirus neutralization: 0.263 µg/mL
[13]
  IC50, pseudovirus neutralization: 0.122 µg/mL
  IC80, pseudovirus neutralization: 0.502 µg/mL
[14]
  IC50, pseudovirus neutralization: > 50 µg/mL
  IC80, pseudovirus neutralization: > 50 µg/mL
[15]
  IC50, pseudovirus neutralization: > 50 µg/mL
  IC80, pseudovirus neutralization: > 50 µg/mL
[16]
  IC50, pseudovirus neutralization: 0.894 µg/mL
  IC80, pseudovirus neutralization: 8 µg/mL
[17]
  IC50, pseudovirus neutralization: 0.668 µg/mL
  IC80, pseudovirus neutralization: 5.32 µg/mL
[18]
  IC50, pseudovirus neutralization: 0.026 µg/mL
  IC80, pseudovirus neutralization: 0.169 µg/mL
[19]
  IC50, pseudovirus neutralization: 0.004 µg/mL
  IC80, pseudovirus neutralization: 0.021 µg/mL
[20]
  IC50, pseudovirus neutralization: 1.74 µg/mL
  IC80, pseudovirus neutralization: 4.85 µg/mL
[21]
  IC50, pseudovirus neutralization: 0.011 µg/mL
  IC80, pseudovirus neutralization: 0.09 µg/mL
[22]
  IC50, pseudovirus neutralization: 0.042 µg/mL
  IC80, pseudovirus neutralization: 0.326 µg/mL
[23]
  IC50, pseudovirus neutralization: > 50 µg/mL
  IC80, pseudovirus neutralization: > 50 µg/mL

B2: 10E8v4-DS (VH Y100eC and VL S30C substitutions) (antibody, V domains shown)
VH: EVRLVESGGGLVKPGGSLRLSCSASGFDFDNAWMTWVRQPPGKGLEWVGRITGPGEGWSVDYAESVKGRFTISRDNTKNTLYLEMNNVRTEDTGYYFCARTGKYYDFWSGCPPGEEYFQDWGQGTLVIVSS
VL: ASELTQDPAVSVALKQTVTITCRGDSLRCHYASWYQKKPGQAPVLLFYGKNNRPSGIPDRFSGSASGNRASLTITGAQAEDEADYYCSSRDKSGSRLSVFGGGTKLTVL
MPER peptide
  fold tighter binding than 10E8v4: 2 fold
[15]
  IC50, pseudovirus neutralization: > 50 µg/mL
  IC80, pseudovirus neutralization: > 50 µg/mL
[16]
  IC50, pseudovirus neutralization: 2.53 µg/mL
  IC80, pseudovirus neutralization: 10.1 µg/mL
[17]
  IC50, pseudovirus neutralization: 0.275 µg/mL
  IC80, pseudovirus neutralization: 2.44 µg/mL
[18]
  IC50, pseudovirus neutralization: 0.092 µg/mL
  IC80, pseudovirus neutralization: 0.345 µg/mL
[19]
  IC50, pseudovirus neutralization: 0.002 µg/mL
  IC80, pseudovirus neutralization: 0.017 µg/mL
[20]
  IC50, pseudovirus neutralization: 2.28 µg/mL
  IC80, pseudovirus neutralization: 6.48 µg/mL
[21]
  IC50, pseudovirus neutralization: 2.41 µg/mL
  IC80, pseudovirus neutralization: 22.2 µg/mL
[22]
  IC50, pseudovirus neutralization: 0.208 µg/mL
  IC80, pseudovirus neutralization: 0.798 µg/mL
[23]
  IC50, pseudovirus neutralization: > 50 µg/mL
  IC80, pseudovirus neutralization: > 50 µg/mL

B3: 10E8v4 S100cW-DS (antibody, V domains shown)
VH: EVRLVESGGGLVKPGGSLRLSCSASGFDFDNAWMTWVRQPPGKGLEWVGRITGPGEGWSVDYAESVKGRFTISRDNTKNTLYLEMNNVRTEDTGYYFCARTGKYYDFWWGCPPGEEYFQDWGQGTLVIVSS
VL: ASELTQDPAVSVALKQTVTITCRGDSLRCHYASWYQKKPGQAPVLLFYGKNNRPSGIPDRFSGSASGNRASLTITGAQAEDEADYYCSSRDKSGSRLSVFGGGTKLTVL
[15]
  IC50, pseudovirus neutralization: > 50 µg/mL
  IC80, pseudovirus neutralization: > 50 µg/mL
[16]
  IC50, pseudovirus neutralization: 0.331 µg/mL
  IC80, pseudovirus neutralization: 3.67 µg/mL
[17]
  IC50, pseudovirus neutralization: 0.213 µg/mL
  IC80, pseudovirus neutralization: 2.2 µg/mL
[18]
  IC50, pseudovirus neutralization: 0.019 µg/mL
  IC80, pseudovirus neutralization: 0.092 µg/mL
[19]
  IC50, pseudovirus neutralization: 0.002 µg/mL
  IC80, pseudovirus neutralization: 0.013 µg/mL
[20]
  IC50, pseudovirus neutralization: 0.806 µg/mL
  IC80, pseudovirus neutralization: 2.93 µg/mL
[21]
  IC50, pseudovirus neutralization: 1.22 µg/mL
  IC80, pseudovirus neutralization: 10.1 µg/mL
[22]
  IC50, pseudovirus neutralization: 0.037 µg/mL
  IC80, pseudovirus neutralization: 0.245 µg/mL
[23]
  IC50, pseudovirus neutralization: > 50 µg/mL
  IC80, pseudovirus neutralization: > 50 µg/mL
